In publication PMC7307210, “Small sequence variations between two mammalian paralogs of the small GTPase SAR1 underlie functional differences in coat protein complex II assembly” (The Journal of Biological Chemistry, 2020):

Molecular target: the molecule itself
Assay: liposome aggregation assay (nanoparticle tracking); 1 μg SAR1 with 100-nm liposomes and GMP-PNP in HKM buffer, 3 h at 37 °C; particle number and size by NanoSight; self-association on a membrane surface

Protein	binding result
SAR1B (natural protein, human SAR1B, full-length (198 residues), with the N-terminal amphipathic helix; also called Secretion-associated Ras-related GTPase 1 B; source: E. coli, purified as GST fusion (GSH-agarose), eluted by thrombin cleavage) not shown	binds
SAR1A (natural protein, human SAR1A, full-length (198 residues), with the N-terminal amphipathic helix; also called Secretion-associated Ras-related GTPase 1 A; source: E. coli, purified as GST fusion (GSH-agarose), eluted by thrombin cleavage) not shown	binds
